This is an account of results in patent publication US20140274782A1, “AFFINITY REAGENTS AND METHODS FOR DETECTION, PURIFICATION, AND PROTEOMIC ANALYSIS OF METHYLATED PROTEINS” (The Board of Trustees of the Leland Stanford Junior …, priority 2013, published 2014).

In one experiment the target is T1, G9a and GLP (Homo sapiens, UniProt Q96KQ7+Q9H9B1).
T1 sequence (Q96KQ7 2-1210 limits assumed): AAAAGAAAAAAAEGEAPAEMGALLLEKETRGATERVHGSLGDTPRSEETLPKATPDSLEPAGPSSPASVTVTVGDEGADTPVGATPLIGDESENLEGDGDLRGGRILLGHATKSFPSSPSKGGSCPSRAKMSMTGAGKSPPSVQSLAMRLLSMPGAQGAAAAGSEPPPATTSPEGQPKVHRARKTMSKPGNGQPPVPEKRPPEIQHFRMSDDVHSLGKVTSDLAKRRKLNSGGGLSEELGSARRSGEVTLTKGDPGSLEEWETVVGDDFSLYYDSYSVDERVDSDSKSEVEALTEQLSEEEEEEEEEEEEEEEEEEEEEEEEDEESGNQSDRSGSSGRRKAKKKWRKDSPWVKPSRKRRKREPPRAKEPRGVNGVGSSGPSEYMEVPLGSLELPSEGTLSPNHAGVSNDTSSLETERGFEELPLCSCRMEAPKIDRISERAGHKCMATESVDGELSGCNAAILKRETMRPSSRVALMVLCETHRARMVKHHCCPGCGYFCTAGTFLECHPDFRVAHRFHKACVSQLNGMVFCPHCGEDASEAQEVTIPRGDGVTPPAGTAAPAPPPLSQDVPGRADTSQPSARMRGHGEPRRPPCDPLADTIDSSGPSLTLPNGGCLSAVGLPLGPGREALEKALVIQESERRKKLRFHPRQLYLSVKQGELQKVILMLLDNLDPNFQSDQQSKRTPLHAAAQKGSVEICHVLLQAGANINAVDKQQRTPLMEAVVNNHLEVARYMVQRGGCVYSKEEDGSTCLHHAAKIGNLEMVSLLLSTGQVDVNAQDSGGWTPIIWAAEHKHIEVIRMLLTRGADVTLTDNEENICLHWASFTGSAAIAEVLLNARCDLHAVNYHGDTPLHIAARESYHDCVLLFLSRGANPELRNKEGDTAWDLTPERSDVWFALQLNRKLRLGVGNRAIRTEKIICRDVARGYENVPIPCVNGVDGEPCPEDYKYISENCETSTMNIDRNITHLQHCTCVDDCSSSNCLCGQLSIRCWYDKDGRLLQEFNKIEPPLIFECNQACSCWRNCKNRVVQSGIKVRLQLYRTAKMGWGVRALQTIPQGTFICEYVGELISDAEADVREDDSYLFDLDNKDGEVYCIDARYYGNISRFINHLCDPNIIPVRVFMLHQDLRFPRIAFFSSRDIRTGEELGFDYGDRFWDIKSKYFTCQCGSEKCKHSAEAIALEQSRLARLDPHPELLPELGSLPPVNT
T1 sequence (Q9H9B1 2-1298 limits assumed): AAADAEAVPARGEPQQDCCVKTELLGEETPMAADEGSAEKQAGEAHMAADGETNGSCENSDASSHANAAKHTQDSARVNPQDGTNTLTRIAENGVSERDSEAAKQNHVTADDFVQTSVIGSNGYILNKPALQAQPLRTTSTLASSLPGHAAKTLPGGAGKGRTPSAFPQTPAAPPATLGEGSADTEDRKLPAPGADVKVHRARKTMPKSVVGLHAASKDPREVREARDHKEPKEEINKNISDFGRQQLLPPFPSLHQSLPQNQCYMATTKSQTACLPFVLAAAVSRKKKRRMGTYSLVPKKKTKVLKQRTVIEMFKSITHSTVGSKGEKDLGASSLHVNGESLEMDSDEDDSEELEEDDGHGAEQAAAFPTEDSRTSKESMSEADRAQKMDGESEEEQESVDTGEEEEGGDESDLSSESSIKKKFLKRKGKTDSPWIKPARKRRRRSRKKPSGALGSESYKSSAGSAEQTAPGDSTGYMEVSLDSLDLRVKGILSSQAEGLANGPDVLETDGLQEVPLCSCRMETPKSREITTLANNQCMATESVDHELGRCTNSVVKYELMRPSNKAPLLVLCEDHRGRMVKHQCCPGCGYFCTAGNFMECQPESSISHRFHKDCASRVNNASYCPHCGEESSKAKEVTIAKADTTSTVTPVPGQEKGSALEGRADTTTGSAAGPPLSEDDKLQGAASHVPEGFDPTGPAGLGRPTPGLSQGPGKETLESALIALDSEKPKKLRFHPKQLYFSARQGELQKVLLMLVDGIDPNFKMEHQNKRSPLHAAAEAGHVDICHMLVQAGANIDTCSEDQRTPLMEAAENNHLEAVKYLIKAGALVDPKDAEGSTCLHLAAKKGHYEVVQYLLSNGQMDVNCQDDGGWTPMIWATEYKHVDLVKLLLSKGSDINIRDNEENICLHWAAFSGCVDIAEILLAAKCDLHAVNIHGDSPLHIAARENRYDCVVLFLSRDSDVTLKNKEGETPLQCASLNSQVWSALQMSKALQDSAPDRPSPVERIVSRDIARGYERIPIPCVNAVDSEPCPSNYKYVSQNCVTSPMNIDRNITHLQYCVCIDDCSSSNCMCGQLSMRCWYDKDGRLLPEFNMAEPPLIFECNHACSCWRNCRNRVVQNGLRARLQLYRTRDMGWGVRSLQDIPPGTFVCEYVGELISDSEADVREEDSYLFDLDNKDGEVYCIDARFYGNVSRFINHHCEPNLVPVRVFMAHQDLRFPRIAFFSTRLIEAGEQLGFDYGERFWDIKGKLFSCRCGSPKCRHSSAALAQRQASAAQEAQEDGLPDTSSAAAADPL
Description: Triple SILAC pull-down after UNC0638 treatment of 293T cells, DMSO/UNC0638 ratio of protein captured by 3×MBT.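 On all read-outs here: mass spectrometry (Q-Exactive) SILAC quantitation, DMSO/UNC0638 ratio computed after subtracting 3×MBTD355N mutant pull-down background, only proteins with at least twofold 3×MBT over mutant signal considered.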 In kind it is cell-based. To be noted: for Relative to UNC0638 UNC Heavy: UNC0638 in heavy SILAC media; for Relative to UNC0638 UNC Light: UNC0638 in light SILAC media; for Relative to UNC0638 Average: average of UNC Light and UNC Heavy experiments. On the set-up: endogenous in cells; host or cells: HEK 293T.

The next experiment concerns 3×MBT domain of L3MBTL1. Description: Triple SILAC pull-down, 3xMBT/3xMBTD355N ratio (cytoplasmic, nuclear and chromatin fractions of 293T cells).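 On all read-outs here: proteins quantified with MaxQuant, requiring at least two unique peptides and quantification in both label directions, normalized to the mean of proteins from a digested loading control.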 The class given is binding, human. As to conditions: for 3xMBT/D355N UNC Heavy: experiment with UNC0638 in heavy SILAC media; for 3xMBT/D355N UNC Light: experiment with UNC0638 in light SILAC media.
[1] abbreviates: SILAC ratio DMSO/UNC0638 of protein pulled down with 3xMBT.
The mark [2] stands for this setting: SILAC ratio, pull-down 3xMBT vs 3xMBTD355N.
Setting [3] is: SILAC ratio 3xMBT vs 3xMBTD355N pull-down, 293T cells, all values in log base 2.

B1: WDR70 (protein, UniProt Q9NW82 1-654, looked up)
WD repeat-containing protein …: MERSGPSEVTGSDASGPDPQLAVTMGFTGFGKKARTFDLEAMFEQTRRTAVERSRKTLEAREKEEEMNREKELRRQNEDIEPTSSRSNVVRDCSKSSSRDTSSSESEQSSDSSDDELIGPPLPPKMVGKPVNFMEEDILGPLPPPLNEEEEEAEEEEEEEEEEENPVHKIPDSHEITLKHGTKTVSALGLDPSGARLVTGGYDYDVKFWDFAGMDASFKAFRSLQPCECHQIKSLQYSNTGDMILVVSGSSQAKVIDRDGFEVMECIKGDQYIVDMANTKGHTAMLHTGSWHPKIKGEFMTCSNDATVRTWEVENPKKQKSVFKPRTMQGKKVIPTTCTYSRDGNLIAAACQNGSIQIWDRNLTVHPKFHYKQAHDSGTDTSCVTFSYDGNVLASRGGDDSLKLWDIRQFNKPLFSASGLPTMFPMTDCCFSPDDKLIVTGTSIQRGCGSGKLVFFERRTFQRVYEIDITDASVVRCLWHPKLNQIMVGTGNGLAKVYYDPNKSQRGAKLCVVKTQRKAKQAETLTQDYIITPHALPMFREPRQRSTRKQLEKDRLDPLKSHKPEPPVAGPGRGGRVGTHGGTLSSYIVKNIALDKTDDSNPREAILRHAKAAEDSPYWVSPAYSKTQPKTMFAQVESDDEEAKNEPEWKKRKI
For the molecule B1, in the experiment with G9a and GLP (setting [1]), the “Relative to UNC0638 UNC Heavy” value is given as 0.94 log base 2 and the “Relative to UNC0638 UNC Light” value is listed as −0.18 log base 2. In addition, the “Relative to UNC0638 Average” value in the experiment with G9a and GLP turned out to be 0.38 log base 2. Further, in the experiment on 3×MBT domain of L3MBTL1 (setting [2]), the “3xMBT/D355N UNC Heavy” value turned out to be 2.21 log base 2 and the “3xMBT/D355N UNC Light” value was 2.93 log base 2.

B2: HNRNPL (protein, UniProt P14866 1-589, looked up)
Heterogeneous nuclear …: MSRRLLPRAEKRRRRLEQRQQPDEQRRRSGAMVKMAAAGGGGGGGRYYGGGSEGGRAPKRLKTDNAGDQHGGGGGGGGGAGAAGGGGGGENYDDPHKTPASPVVHIRGLIDGVVEADLVEALQEFGPISYVVVMPKKRQALVEFEDVLGACNAVNYAADNQIYIAGHPAFVNYSTSQKISRPGDSDDSRSVNSVLLFTILNPIYSITTDVLYTICNPCGPVQRIVIFRKNGVQAMVEFDSVQSAQRAKASLNGADIYSGCCTLKIEYAKPTRLNVFKNDQDTWDYTNPNLSGQGDPGSNPNKRQRQPPLLGDHPAEYGGPHGGYHSHYHDEGYGPPPPHYEGRRMGPPVGGHRRGPSRYGPQYGHPPPPPPPPEYGPHADSPVLMVYGLDQSKMNCDRVFNVFCLYGNVEKVKFMKSKPGAAMVEMADGYAVDRAITHLNNNFMFGQKLNVCVSKQPAIMPGQSYGLEDGSCSYKDFSESRNNRFSTPEQAAKNRIQHPSNVLHFFNAPLEVTEENFFEICDELGVKRPSSVKVFSGKSERSSSGLLEWESKSDALETLGFLNHYQMKNPNGPYPYTLKLCFSTAQHAS
With B2, in the experiment with G9a and GLP (setting [1]), the “Relative to UNC0638 UNC Heavy” value is 0.36 log base 2 and the “Relative to UNC0638 UNC Light” value was 0.41 log base 2. Also, the “Relative to UNC0638 Average” value in the experiment with G9a and GLP amounted to 0.38 log base 2. The “Candidate G9a/GLP target” value with G9a and GLP (reduced association with 3xMBT after UNC0638 treatment) is listed as “✓”. Besides, in the experiment with 3×MBT domain of L3MBTL1 (setting [2]), the “3xMBT/D355N UNC Heavy” value is given as 1.15 log base 2 and the “3xMBT/D355N UNC Light” value stood at 1.40 log base 2.

B3: CHEK1 (protein, UniProt O14757 1-476, looked up)
Serine/threonine-protein …: MAVPFVEDWDLVQTLGEGAYGEVQLAVNRVTEEAVAVKIVDMKRAVDCPENIKKEICINKMLNHENVVKFYGHRREGNIQYLFLEYCSGGELFDRIEPDIGMPEPDAQRFFHQLMAGVVYLHGIGITHRDIKPENLLLDERDNLKISDFGLATVFRYNNRERLLNKMCGTLPYVAPELLKRREFHAEPVDVWSCGIVLTAMLAGELPWDQPSDSCQEYSDWKEKKTYLNPWKKIDSAPLALLHKILVENPSARITIPDIKKDRWYNKPLKKGAKRPRVTSGGVSESPSGFSKHIQSNLDFSPVNSASSEENVKYSSSQPEPRTGLSLWDTSPSYIDKLVQGISFSQPTCPDHMLLNSQLLGTPGSSQNPWQRLVKRMTRFFTKLDADKSYQCLKETCEKLGYQWKKSCMNQVTISTTDRRNNKLIFKVNLLEMDDKILVDFRLSKGDGLEFKRHFLKIKGKLIDIVSSQKIWLPAT
For the molecule B3, in the experiment with G9a and GLP (SILAC ratio DMSO relative to UNC0638, pull-down with 3xMBT, all values in log base 2), the “Relative to UNC0638 UNC Light” value is given as −0.99 log base 2. The “Relative to UNC0638 Average” value with G9a and GLP (all values in log base 2) is reported as −0.99 log base 2. Moreover, in the experiment on 3×MBT domain of L3MBTL1 (setting [3]), the “3xMBT/D355N UNC Heavy” value came to 0.09 log base 2 and the “3xMBT/D355N UNC Light” value is reported as 0.46 log base 2.

B4: SEPT7 (protein, UniProt Q16181 2-437, looked up)
Septin-7: SVSARSAAAEERSVNSSTMVAQQKNLEGYVGFANLPNQVYRKSVKRGFEFTLMVVGESGLGKSTLINSLFLTDLYSPEYPGPSHRIKKTVQVEQSKVLIKEGGVQLLLTIVDTPGFGDAVDNSNCWQPVIDYIDSKFEDYLNAESRVNRRQMPDNRVQCCLYFIAPSGHGLKPLDIEFMKRLHEKVNIIPLIAKADTLTPEECQQFKKQIMKEIQEHKIKIYEFPETDDEEENKLVKKIKDRLPLAVVGSNTIIEVNGKRVRGRQYPWGVAEVENGEHCDFTILRNMLIRTHMQDLKDVTNNVHYENYRSRKLAAVTYNGVDNNKNKGQLTKSPLAQMEEERREHVAKMKKMEMEMEQVFEMKVKEKVQKLKDSEAELQRRHEQMKKNLEAQHKELEEKRRQFEDEKANWEAQQRILEQQNSSRTLEKNKKKGKIF
For B4, in the experiment with G9a and GLP (setting [1]), the “Relative to UNC0638 UNC Heavy” value was 0.50 log base 2 and the “Relative to UNC0638 UNC Light” value stood at 0.26 log base 2. In the experiment with G9a and GLP, the “Relative to UNC0638 Average” value came out at 0.38 log base 2. Moreover, in the experiment on 3×MBT domain of L3MBTL1 (setting [2]), the “3xMBT/D355N UNC Heavy” value was found to be 2.75 log base 2 and the “3xMBT/D355N UNC Light” value is on record as 2.54 log base 2.
